# Experimental data: the DeepSol protein solubility set
# Experiment: soluble on expression in E. coli; label from the status in PepcDB or PDB records
row,Sequence,soluble on expression in E. coli
1,ILGPHHLDEYVRVWAEYDPAACGRIHYKDMYSLLRVISPPLGLGKKCPHRVACKRLLRMDLPVADDNTVHFNSTLMALIRTALDIKIAKGGADKQQMDAELRKEMMAIWPNLSQKTLDLLVTPHKSTDLTVGKIYAAMMIMEYYRQSKAKKLQAMREEQDRTPLMFQRMEPPSPTQEGGPGQNALPSTQLDPGGALMAHESGLKESPSWVTQRAQEMFQKTGTWSPE,not soluble
2,INDPAKSAAPYHDEFPLFRSANMASPDKLSTGIGFHSFRIPAVVRTTTGRILAFAEGRRHTNQDFGDINLVYKRTKTTANNGASPSDWEPLREVVGSGAGTWGNPTPVVDDDNTIYLFLSWNGATYSQNGKDVLPDGTVTKKIDSTWEGRRHLYLTESRDDGNTWSKPVDLTKELTPDGWAWDAVGPGNGIRLTTGELVIPAMGRNIIGRGAPGNRTWSVQRLSGAGAEGTIVQTPDGKLYRNDRPSQKGYRMVARGTLEGFGAFAPDAGLPDPACQGSVLRYNSDAPARTIFLNSASGTSRRAMRVRISYDADAKKFNYGRKLEDAKVSGAGHEGGYSSMTKTGDYKIGALVESDFFNDGTGKNSYRAIIWRRFNLSWILNGPNN,soluble
3,INQYNQKKSQEYTDMQLLLQKESDFAQYYEMILSQSENQSILIHDIKKHLQSIKLLNEKNDSDKINAYIQQLLESSDLKETSKICDNEMLNAILCRYQRQCNEKHIVFHTDIRSDTVQNIYQHDLTSLFCNLLDNALESADNIPDSFIELTVEKKENSPFIIIILINSCRSTPVYDQDGLPVSHKANKGRHGFGIKSIKKVVKQYHGNLQMYYDNDSGTFHTIITLKQ,not soluble
4,INYRCPKRVITLINNIRKGDDQNVQVPKEDAIDGFVRLFIVDSNTTDKLELENKIRFQMAMLTHDEDWNIAEEVKTLTLEHDMAASRGGFDEFLLPLSSVSSLRDAALNGTSKNINFITSTLLPFIDAVEKDDSFEVARIIKSGSLLISDSNQSFLLNPIGTLKDIDSNVVEFKKILVNGKVTLHNVLSTIQKFELLSLPDELLVYLSDIEQGEPNEPESDTKLLSDVDKAWGLALNSSIGHVKNYAKYVNETLGYATHQGVKGLEYKRVMAVLDDKFKGFLFDYEKLFGAKDLTKKDIENEDLGKDSALSRTRRLFYVICSRAEQSLAVVAYSNDPIAIEKTAIESEWFSKDEIVLI,not soluble
5,IRVNTNKGGGVWESGAANSQSTSWGSGNGANSGGSRRGWGTPAQNTGTNLPSVEWNKLPSNQHSNDSANGNGKTFTNGWKSTEEEDQGSATSQTNEQSSVWAKTGGTVESDGSTESTGRLEEKGTGESQSRDRRKIDQHTLLQSIVNRTDLDPRVLSNSGWGQTPIKQNTAWDTETSPRGERKTDNGTEAWGSSATQTFNSGACIDKTSPNGNDTSSVSGWGDPKPALRWGDSKGSNCQGGWEDDSAATGMVKSNQWGNCKEEKAAWNDSQKNKQGWGDGQKSSQGWSVSASDNWGETSRNNHWGEANKKSSSGGSDSDRSVSGWNELGKTSSFTWGNNINPNNSSGWDESSKPTPSQGWGDPPKSNQSLGWGDSSKPVSSPDWNKQQDIVGSWGIPPATGKPPGTGWLGGPIPAPAKEEEPTGWEEPSPESIRRKMEIDDGTSAWGDPSKYNYKNVNMWNKNVPNGNSRSDQQAQVHQLLTPASAISNKEASSGSGWGEPWGEPSTPATTVDNGTSAWGKPIDSGPSWGEPIAAASSTSTWGSSSVGPQALSKSGPKSMQDGWCGDDMPLPGNRPTGWEEEEDVEIGMWNSNSSQELNSSLNWPPYTKKMSSKGLSGKKRRRERGMMKGGNKQEEAWINPFVKQFSNISFSRDSPEENVQSNKMDLSGGMLQDKRMEIDKHSLNIGDYNRTVGKGPGSRPQISKESSMERNPYFDKDGIVADESQNMQFMSSQSMKLPPSNSALPNQALGSIAGLGMQNLNSVRQNGNPSMFGVGNTAAQPRGMQQPPAQPLSSSQPNLRAQVPPPLLSPQVPVSLLKYAPNNGGLNPLFGPQQVAMLNQLSQLNQLSQISQLQRLLAQQQRAQSQRSVPSGNRPQQDQQGRPLSVQQQMMQQSRQLDPNLLVKQQTPPSQQQPLHQPAMKSFLDNVMPHTTPELQKGPSPINAFSNFPIGLNSNLNVNMDMNSIKEPQSRLRKWTTVDSISVNTSLDQNSSKHGAISSGFRLEESPFVPYDFMNSSTSPASPPGSIGDGWPRAKSPNGSSSVNWPPEFRPGEPWKGYPNIDPETDPYVTPGSVINNLSINTVREVDHLRDRNSGSSSSLNTTLPSTSAWSSIRASNYNVPLSSTAQSTSARNSDSKLTWSPGSVTNTSLAHELWKVPLPPKNITAPSRPPPGLTGQKPPLSTWDNSPLRIGGGWGNSDARYTPGSSWGESSSGRITNWLVLKNLTPQIDGSTLRTLCMQHGPLITFHLNLPHGNALVRYSSKEEVVKAQKSLHMCVLGNTTILAEFASEEEISRFFAQSQSLTPSPGWQSLGSSQSRLGSLDCSHSFSSRTDLNHWNGAGLSGTNCGDLHGTSLWGTPHYSTSLWGPPSSSDPRGISSPSPINAFLSVDHLGGGGESM,soluble
6,ISSEQDAINNRFLPTTDRFSERGSYGNFNYAAYQPEAAIGGEKNPLIVWLHGIGEVGTDINIPLLASNVARLTEDPIQSHFTSTGSGGQKGAYVLVPQSSIPWSQNQTASLMALIKAYVASHPDIDSRRIYLAGVSNGGGMTLDMGVAYPNYFAALVPIAASYSNQLTDNQITAAALKALKGQPMWLIHTRTDKTISADSSVLPFYKELLQAGAQNKWLSYYETNVGKHHSGVTYNGHWSWIYFLNDQV,not soluble
7,ITTKKGQEGKPAINVRTEFGFTAPTKRPEMINSAQWAELYNEASGTNYYSPEVIQKYRDHSDPDLYPDVDWFDALFDDMAENQRVNLSVTGGGDNIKYYVSGSFYNESSIYKNAGNIYGYNSAIRYNKFNFRANVDLNVTKSTTLNVNLANIYEKSFGPGFGDNDNDIWSYTFNASPNAFPVQYSDGTLSGPSTDSGHNPWNMLVHSGYREQFWNSAQSLIGLTQDFGKIWEPLEGLTANIKFSWDAWNTTLQRRSKSPSFYHARGRDAEGRLMYDDNNNDGEWDPVHTGSESLGYEIGRQGTMTRYLEGSLNYNRLFGNHRVGALFLYNQKIHTNTQAADGNAALPYKNQGLAGRVTYAFRDTYFAEVNMGYNGSENFARGHRFGFFPAFALGWMVSNEKWFEPLTKTIDMLKLKGSYGKVGNDDIGGQRRWVYESTIVGTGDQGWWFGQSGNQGGAGIRVGEIENLYASWEEATKLNLGVEFSLFNKVKVQADYFREERQGIFLQRAGLPAIVGLSTIPYVNIGRTLNKGFDANVEYNHQIGKVFLTARGNFTFSRNKLLDNDEPDWEYKYQNRIGKPFGSDGQMQPFGLVALGLFQSQEEIDNSPRQTFGEYRVGDIKYQDINGDGIIDTQDEVAIGYTNLPEIMYGFGLGAQWKNWDINAFFQGSAHTSFFLDGVSVKSPFSSGNMERAAINKDLWGKVWMSTNSPEQNAHVTYPRLSNGSGGAGASNNNKNSTWWLRNGSFLRLKNIEIGYTLPKEFVTKTFIKSLRFYVSGNNLLTFSSFKLWDPEKAKGSSDGSGYPLNRVVTVGFNANF,not soluble
8,IVGGYTCQENSVPYQVSLNSGYHFCGGSLINDQWVVSAAHCYKSRIQVRLGEHNINVLEGDEQFVNAAKIIKHPNFDRKTLNNNIMLIKLSSPVKLNARVATVALPSSCAPAGTQCLISGWGNTLSSGVNEPDLLQCLDAPLLPQADCEASYPGKITDNMVCVGFLEGGKDSCQGDSGGPVVCNGELQGIVSWGYGCALPDNPGVYTKVCNYVDWIQDTIAAN,soluble
9,KAFTPDEAARFYAAARADRWGWPLAFMLATGLRPGEALGLTWADVTMRGSAEGGTLAAVVHIERTRSVSGGRVYEDTPKTERGRRSLTVTGDAARLLLDARAQAEREAGARLRHNGREYQSTGYVFVTRAGTPYRPDNLRRPMARLCQAVGVPVLTPHKLRHTWASVQAAAGVPVEVLSAELGHAAPSFTRDTYRHVYESERASLTYDPLTPAAAPAPEPEPQGRKRV,not soluble
10,KDDKVASATDVQFETPLKIVEYPDPILRAKNKRIDIFDENLKNLVDAMFDVMYKTDGIGLSAPQVGLNVQLMVFNPAGEPGEGKEIVLVNPKIKKYSDKLVPFDEGCLSFPGIYAEVVRPQSVKIDARDITGERFSISLSRLPARIFQHEYDHLEGVLFFDRMTDQVLDSIREELEALEKKYEEKTGLPSPER,soluble
11,KEPEMRPLGAYDTEELIPVLDYLDQQKINYKLDGNTVSVESSEYNSIKLGMVRSGVNQATEAGDDILLQDMGFGVSQRLEQERLKLSRERQLAQAIEEMKQVRKARVLLALPKHSVFVRHNQEASASVFLTLSTGANLKQQEVDSIVDMVASAVPGMKTSRITVTDQHGRLLSSGSQDPASAARRKEQELERSQEQALREKIDSVLLPILGFGNYTAQVDIQMDFSAVEQTRKRFDPNTPSTRSEYALEDYNNGNMVAGIPGALSNQPPADASIPQDVAQMKDGSVMGQGSVRKESTRNFELDTTISHERKQTGTVARQTVSVAIKDRRQVNPDTGEVTYTPMSEGEINAIRQVLIGTVGFDQSRGDLLNVLSVKFAEPETEQLVDQPIWEHPNFND,not soluble
12,KGATFKEAEEHYHINALYLLAHSALESNWGRSKIAKDKNNFFGITAYDTTPYLSAKTFDDVDKGILGATKWIKENYIDRGRTFLGNKASGMNVEYASDPYWGEKIASVMMKINEKLGGKD,not soluble
13,KGSAFAPGITAGMGVKYKLKPRINVGIEYSFTGLLTDALDALTDKSVWLEDPYKINDSWVKNKDATGALVLRITYDFGLRKTFCNKQ,not soluble
14,KGTYLSEYANFAAALTEGKILLLADLRGFGETTDPAFYTDAKYWNREYRNAMVSMHIGRPIMGQRVVDILTLLDFCSEHEFLKGHPVKVFANGIYGPVAIHAAYLDERINSVEIKHSVKTWKEYIERPMQWDMYSNVLYGALKYYDLPDLIRLSNCPIRFAD,not soluble
15,KHLFDEIDTIDVMDVNAGDHGKKFATNFDPETNMLEIQGDSFYWENGEWKQVPCHSRMLEFEFPNCGSHKVYSMAHDEVRSMKEFIPAKRIEFWMGFGDRYLNYFNVMRDIGLLSPDPLTLHDGTVVQPLHVLKALLPDP,not soluble
16,KKEDIVRIHASSGTSGKPTVVGYTAKDIETWSDLIARSLTMIGLSKGDTIQNSMNYGLFTGGLGFHYGVERMGAMIVPAATGNTARQLEMMIDFGVTAVHCTPSYAFYLAETAEELDLIDKLSLKAAIFGGEPWSENTRKQLEKRLNLKAYDCYGLSEMFGPGVGFECQEQDGLHIW,not soluble
17,KLAYKLGIGLECPFDKIWSLQTGVSFVSKGTNHTIVETDGISAQAKVNASYLEFPVMVAARFAMDRNTYILVAAGPYGAWGIGGKTKALGYSWSSSSTPDWNTGNVVEINTFGKDGLDLRRFDYGVAIGLSVEYRHYVIGVEGRLGLCKLQKELQGKNITGFVTAGYKF,not soluble
18,KLDKIDNKNRRIRKKLFLGEFAILGFEISCETDINDFDRYDAFVDDFIDYIDTLGLCFGGGGLELFEGFLCSTERYGSATEEQKAQVVAWLEARPEVKSAKAGDLLDANY,not soluble
19,KLIAATGCPTGIAHTFMAQEALEQAAKEKGVSIKVETHGQVGVENELTPAEIAGAKAVIIAADKDVQAERFAGKRVIEVSVADGIKKADQLIADALAGKGQIK,not soluble
20,KQLLFMHSSASVESLERPYLETMPGQYAAEITLFEWLDFLLERGGVKRALKAIEYYETVGWVSADAAERLQGHVRGFSGPADDDSHSDLEMSDHVLSLVYIARLSSMQ,not soluble
21,KQLLTLKIKCSNQPERQILEKQLPDSMTVQKVKGLLSRLLKVPVSELLLSYESSKMPGREIELENDLQPLQFYSVENGDCLLVR,soluble
22,KQQKDGSWLMDALIPLNELKYKLGLTTIEGEESEGFQTLNGFLTWWLGRLPHAGELVDYEGWQFEVLNVKHHRIVQVKVSRETESETTTDTNDGDANP,not soluble
23,KRSKVLSQASKNAEQFEDKFWSGTDLSQLYQKVKGRKDEIAGTEEIFFAGFTEFARLRKSNANSPAYIMEGTGRAMRVAVAREVDELETS,not soluble
